This note sets out measurements from article PMC8387475.

The experiment addresses UBR5 (UniProt O95071). Kind of experiment: co-immunoprecipitation, immunoblot. To be noted: reference: wild type SIRT7; sites T255,S259.

On to “SIRT7 (from UniProt Q9NRC8) SIRT7-2A (T255A/S259A)”, for which the “binding against the reference” value is on record as “stronger”.
